# Starred links: 1 amine or outer side, 2 acyl side, 3 side chain; linkers in the order of their positions; H or OH if unused. Non-standard residues stand in square brackets, D forms with d. Groups on a side chain read outwards from the residue. No end group written: not given here. *: point of attachment. C20 diacid = O=C(O)CCCCCCCCCCCCCCCCCCC(=O)*; C18 diacid = O=C(O)CCCCCCCCCCCCCCCCC(=O)*; γGlu = O=C(O)[C@H](CCC(=O)[*:2])N[*:1]; αMeF = C[C@](N)(Cc1ccccc1)C(=O)O; AEEA = NCCOCCOCC(=O)O; Aib = CC(C)(N)C(=O)O
# Assays:
# [1] = biological target: human GLP-1 receptor (hGLP-1R) (human, UniProt P43220 24-463); assay: cell-based or functional assay
# [2] = biological target: human glucagon receptor (hGCGR) (human, UniProt P47871 26-477); assay: cell-based or functional assay
# human glucagon receptor (hGCGR), sequence (P47871 26-477): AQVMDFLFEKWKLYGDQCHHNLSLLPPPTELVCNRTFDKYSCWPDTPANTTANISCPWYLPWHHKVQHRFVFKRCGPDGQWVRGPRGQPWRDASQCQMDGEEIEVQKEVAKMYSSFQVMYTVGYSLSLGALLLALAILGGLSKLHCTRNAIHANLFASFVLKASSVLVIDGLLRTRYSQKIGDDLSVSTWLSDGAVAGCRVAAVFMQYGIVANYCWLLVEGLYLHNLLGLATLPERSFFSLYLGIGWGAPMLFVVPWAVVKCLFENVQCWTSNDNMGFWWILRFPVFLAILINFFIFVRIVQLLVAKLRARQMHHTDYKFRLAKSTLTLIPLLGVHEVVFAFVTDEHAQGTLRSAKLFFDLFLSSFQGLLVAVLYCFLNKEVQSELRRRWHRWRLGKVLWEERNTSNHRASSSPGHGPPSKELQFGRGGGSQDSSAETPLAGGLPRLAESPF
Binder,hGLP-1R EC50 (pM) [1],hGluc-R EC50 (pM) [2]
H[Aib]QGTFTSDVSK[αMeF]LDKK([AEEA-AEEA-γGlu-C18 diacid])RARDFVRWLL[Aib]E-OH (N-terminus assumed; SMILES CC(C)C[C@H](NC(=O)[C@H](Cc1c[nH]c2ccccc12)NC(=O)[C@H](CCCNC(=N)N)NC(=O)[C@@H](NC(=O)[C@H](Cc1ccccc1)NC(=O)[C@H](CC(=O)O)NC(=O)[C@H](CCCNC(=N)N)NC(=O)[C@H](C)NC(=O)[C@H](CCCNC(=N)N)NC(=O)[C@H](CCCCNC(=O)COCCOCCNC(=O)COCCOCCNC(=O)CC[C@H](NC(=O)CCCCCCCCCCCCCCCCC(=O)O)C(=O)O)NC(=O)[C@H](CCCCN)NC(=O)[C@H](CC(=O)O)NC(=O)[C@H](CC(C)C)NC(=O)[C@](C)(Cc1ccccc1)NC(=O)[C@H](CCCCN)NC(=O)[C@H](CO)NC(=O)[C@@H](NC(=O)[C@H](CC(=O)O)NC(=O)[C@H](CO)NC(=O)[C@@H](NC(=O)[C@H](Cc1ccccc1)NC(=O)[C@@H](NC(=O)CNC(=O)[C@H](CCC(N)=O)NC(=O)C(C)(C)NC(=O)[C@@H](N)Cc1c[nH]cn1)[C@@H](C)O)[C@@H](C)O)C(C)C)C(C)C)C(=O)N[C@@H](CC(C)C)C(=O)NC(C)(C)C(=O)N[C@@H](CCC(=O)O)C(=O)O) [Peptide 414],32.3 pM,26.9 pM
H[Aib]QGTFTSDVSK[αMeF]LDTK([AEEA-AEEA-γGlu-C20 diacid])RAQDFVAWLEAGG-OH (N-terminus assumed; SMILES CC(C)C[C@H](NC(=O)[C@H](Cc1c[nH]c2ccccc12)NC(=O)[C@H](C)NC(=O)[C@@H](NC(=O)[C@H](Cc1ccccc1)NC(=O)[C@H](CC(=O)O)NC(=O)[C@H](CCC(N)=O)NC(=O)[C@H](C)NC(=O)[C@H](CCCNC(=N)N)NC(=O)[C@H](CCCCNC(=O)COCCOCCNC(=O)COCCOCCNC(=O)CC[C@H](NC(=O)CCCCCCCCCCCCCCCCCCC(=O)O)C(=O)O)NC(=O)[C@@H](NC(=O)[C@H](CC(=O)O)NC(=O)[C@H](CC(C)C)NC(=O)[C@](C)(Cc1ccccc1)NC(=O)[C@H](CCCCN)NC(=O)[C@H](CO)NC(=O)[C@@H](NC(=O)[C@H](CC(=O)O)NC(=O)[C@H](CO)NC(=O)[C@@H](NC(=O)[C@H](Cc1ccccc1)NC(=O)[C@@H](NC(=O)CNC(=O)[C@H](CCC(N)=O)NC(=O)C(C)(C)NC(=O)[C@@H](N)Cc1c[nH]cn1)[C@@H](C)O)[C@@H](C)O)C(C)C)[C@@H](C)O)C(C)C)C(=O)N[C@@H](CCC(=O)O)C(=O)N[C@@H](C)C(=O)NCC(=O)NCC(=O)O) [Peptide 412],186 pM,397 pM
H[Aib]QGTFTSDVSK[αMeF]LDTK([AEEA-AEEA-γGlu-C18 diacid])RARDFVAWLL[Aib]TE-OH (N-terminus assumed; SMILES CC(C)C[C@H](NC(=O)[C@H](Cc1c[nH]c2ccccc12)NC(=O)[C@H](C)NC(=O)[C@@H](NC(=O)[C@H](Cc1ccccc1)NC(=O)[C@H](CC(=O)O)NC(=O)[C@H](CCCNC(=N)N)NC(=O)[C@H](C)NC(=O)[C@H](CCCNC(=N)N)NC(=O)[C@H](CCCCNC(=O)COCCOCCNC(=O)COCCOCCNC(=O)CC[C@H](NC(=O)CCCCCCCCCCCCCCCCC(=O)O)C(=O)O)NC(=O)[C@@H](NC(=O)[C@H](CC(=O)O)NC(=O)[C@H](CC(C)C)NC(=O)[C@](C)(Cc1ccccc1)NC(=O)[C@H](CCCCN)NC(=O)[C@H](CO)NC(=O)[C@@H](NC(=O)[C@H](CC(=O)O)NC(=O)[C@H](CO)NC(=O)[C@@H](NC(=O)[C@H](Cc1ccccc1)NC(=O)[C@@H](NC(=O)CNC(=O)[C@H](CCC(N)=O)NC(=O)C(C)(C)NC(=O)[C@@H](N)Cc1c[nH]cn1)[C@@H](C)O)[C@@H](C)O)C(C)C)[C@@H](C)O)C(C)C)C(=O)N[C@@H](CC(C)C)C(=O)NC(C)(C)C(=O)N[C@H](C(=O)N[C@@H](CCC(=O)O)C(=O)O)[C@@H](C)O) [Peptide 409],22.7 pM,203 pM
H[Aib]QGTFTSDVSK[αMeF]LDTK([AEEA-AEEA-γGlu-γGlu-C20 diacid])RAQDFVRWLEA[Aib]G-OH (N-terminus assumed; SMILES CC(C)C[C@H](NC(=O)[C@H](Cc1c[nH]c2ccccc12)NC(=O)[C@H](CCCNC(=N)N)NC(=O)[C@@H](NC(=O)[C@H](Cc1ccccc1)NC(=O)[C@H](CC(=O)O)NC(=O)[C@H](CCC(N)=O)NC(=O)[C@H](C)NC(=O)[C@H](CCCNC(=N)N)NC(=O)[C@H](CCCCNC(=O)COCCOCCNC(=O)COCCOCCNC(=O)CC[C@H](NC(=O)CC[C@H](NC(=O)CCCCCCCCCCCCCCCCCCC(=O)O)C(=O)O)C(=O)O)NC(=O)[C@@H](NC(=O)[C@H](CC(=O)O)NC(=O)[C@H](CC(C)C)NC(=O)[C@](C)(Cc1ccccc1)NC(=O)[C@H](CCCCN)NC(=O)[C@H](CO)NC(=O)[C@@H](NC(=O)[C@H](CC(=O)O)NC(=O)[C@H](CO)NC(=O)[C@@H](NC(=O)[C@H](Cc1ccccc1)NC(=O)[C@@H](NC(=O)CNC(=O)[C@H](CCC(N)=O)NC(=O)C(C)(C)NC(=O)[C@@H](N)Cc1c[nH]cn1)[C@@H](C)O)[C@@H](C)O)C(C)C)[C@@H](C)O)C(C)C)C(=O)N[C@@H](CCC(=O)O)C(=O)N[C@@H](C)C(=O)NC(C)(C)C(=O)NCC(=O)O) [Peptide 408],370 pM,828 pM
H[Aib]QGTFTSDVSK[αMeF]LDTK([AEEA-AEEA-γGlu-C18 diacid])RAQDFVAWLEAGG-OH (N-terminus assumed; SMILES CC(C)C[C@H](NC(=O)[C@H](Cc1c[nH]c2ccccc12)NC(=O)[C@H](C)NC(=O)[C@@H](NC(=O)[C@H](Cc1ccccc1)NC(=O)[C@H](CC(=O)O)NC(=O)[C@H](CCC(N)=O)NC(=O)[C@H](C)NC(=O)[C@H](CCCNC(=N)N)NC(=O)[C@H](CCCCNC(=O)COCCOCCNC(=O)COCCOCCNC(=O)CC[C@H](NC(=O)CCCCCCCCCCCCCCCCC(=O)O)C(=O)O)NC(=O)[C@@H](NC(=O)[C@H](CC(=O)O)NC(=O)[C@H](CC(C)C)NC(=O)[C@](C)(Cc1ccccc1)NC(=O)[C@H](CCCCN)NC(=O)[C@H](CO)NC(=O)[C@@H](NC(=O)[C@H](CC(=O)O)NC(=O)[C@H](CO)NC(=O)[C@@H](NC(=O)[C@H](Cc1ccccc1)NC(=O)[C@@H](NC(=O)CNC(=O)[C@H](CCC(N)=O)NC(=O)C(C)(C)NC(=O)[C@@H](N)Cc1c[nH]cn1)[C@@H](C)O)[C@@H](C)O)C(C)C)[C@@H](C)O)C(C)C)C(=O)N[C@@H](CCC(=O)O)C(=O)N[C@@H](C)C(=O)NCC(=O)NCC(=O)O) [Peptide 411],98.1 pM,378 pM
H[Aib]QGTFTSDVSK[αMeF]LDTK([AEEA-AEEA-γGlu-C20 diacid])RARDFVAWLL[Aib]TE-OH (N-terminus assumed; SMILES CC(C)C[C@H](NC(=O)[C@H](Cc1c[nH]c2ccccc12)NC(=O)[C@H](C)NC(=O)[C@@H](NC(=O)[C@H](Cc1ccccc1)NC(=O)[C@H](CC(=O)O)NC(=O)[C@H](CCCNC(=N)N)NC(=O)[C@H](C)NC(=O)[C@H](CCCNC(=N)N)NC(=O)[C@H](CCCCNC(=O)COCCOCCNC(=O)COCCOCCNC(=O)CC[C@H](NC(=O)CCCCCCCCCCCCCCCCCCC(=O)O)C(=O)O)NC(=O)[C@@H](NC(=O)[C@H](CC(=O)O)NC(=O)[C@H](CC(C)C)NC(=O)[C@](C)(Cc1ccccc1)NC(=O)[C@H](CCCCN)NC(=O)[C@H](CO)NC(=O)[C@@H](NC(=O)[C@H](CC(=O)O)NC(=O)[C@H](CO)NC(=O)[C@@H](NC(=O)[C@H](Cc1ccccc1)NC(=O)[C@@H](NC(=O)CNC(=O)[C@H](CCC(N)=O)NC(=O)C(C)(C)NC(=O)[C@@H](N)Cc1c[nH]cn1)[C@@H](C)O)[C@@H](C)O)C(C)C)[C@@H](C)O)C(C)C)C(=O)N[C@@H](CC(C)C)C(=O)NC(C)(C)C(=O)N[C@H](C(=O)N[C@@H](CCC(=O)O)C(=O)O)[C@@H](C)O) [Peptide 410],78 pM,455 pM
H[Aib]QGTFTSDVSK[αMeF]LDTK([AEEA-AEEA-γGlu-C20 diacid])RAQDFVRWLEA[Aib]G-OH (N-terminus assumed; SMILES CC(C)C[C@H](NC(=O)[C@H](Cc1c[nH]c2ccccc12)NC(=O)[C@H](CCCNC(=N)N)NC(=O)[C@@H](NC(=O)[C@H](Cc1ccccc1)NC(=O)[C@H](CC(=O)O)NC(=O)[C@H](CCC(N)=O)NC(=O)[C@H](C)NC(=O)[C@H](CCCNC(=N)N)NC(=O)[C@H](CCCCNC(=O)COCCOCCNC(=O)COCCOCCNC(=O)CC[C@H](NC(=O)CCCCCCCCCCCCCCCCCCC(=O)O)C(=O)O)NC(=O)[C@@H](NC(=O)[C@H](CC(=O)O)NC(=O)[C@H](CC(C)C)NC(=O)[C@](C)(Cc1ccccc1)NC(=O)[C@H](CCCCN)NC(=O)[C@H](CO)NC(=O)[C@@H](NC(=O)[C@H](CC(=O)O)NC(=O)[C@H](CO)NC(=O)[C@@H](NC(=O)[C@H](Cc1ccccc1)NC(=O)[C@@H](NC(=O)CNC(=O)[C@H](CCC(N)=O)NC(=O)C(C)(C)NC(=O)[C@@H](N)Cc1c[nH]cn1)[C@@H](C)O)[C@@H](C)O)C(C)C)[C@@H](C)O)C(C)C)C(=O)N[C@@H](CCC(=O)O)C(=O)N[C@@H](C)C(=O)NC(C)(C)C(=O)NCC(=O)O) [Peptide 407],209 pM,462 pM
H[Aib]QGTFTSDVSK[αMeF]LDTK([AEEA-AEEA-γGlu-γGlu-C20 diacid])RAQDFVAWLEAGG-OH [Peptide 413],406 pM,1020 pM
H[Aib]QGTFTSDVSK[αMeF]LDTK([AEEA-AEEA-γGlu-γGlu-C20 diacid])RARDFVQWLLE[Aib]G-NH2 [Peptide 458],–,385 pM

# Reference: patent publication US20230357348A1 (AstraZeneca / MedImmune, published 2023)
